Source: US20220235138A1, “CAR-T CELLS TARGETING IL-1RAP AND THEIR USE IN ACUTE MYELOID LEUKEMIA (AML)” (ETABLISSEMENT FRANCAIS DU SANG, priority 2019, published 2022)

Columns and labels:
[1] = target: recombinant IL-1RAP biotinylated protein (UniProt Q9NPH3); assay: flow cytometry, biotinylated IL-1RAP (1.25 ng) on CAR-transduced CEM cells, anti-biotin antibody
[2] = target: recombinant IL-1RAP biotinylated protein (UniProt Q9NPH3); assay: flow cytometry, biotinylated IL-1RAP (0.15 ng) on CAR-transduced primary T cells, anti-biotin antibody
[3] = target: recombinant IL-1RAP biotinylated protein (UniProt Q9NPH3); assay: flow cytometry, serial dilution of biotinylated IL-1RAP on CAR-transduced CEM cells, anti-biotin antibody; single experiment
[4] = target: recombinant IL-1RAP biotinylated protein (UniProt Q9NPH3); assay: flow cytometry, serial dilution of biotinylated IL-1RAP on CAR-transduced primary T cells, anti-biotin antibody; single experiment
[5] = target: IL-1RAP expressed at the cell surface of human cells (human), Q9NPH3; assay: flow cytometry on monocytes of healthy donors' peripheral blood (2/5) and bone marrow (3/5); RFI against isotype; details: remark: other sources report otherwise
IL-1RAP expressed at the cell surface of human cells (human), Q9NPH3, sequence (Q9NPH3 21-570): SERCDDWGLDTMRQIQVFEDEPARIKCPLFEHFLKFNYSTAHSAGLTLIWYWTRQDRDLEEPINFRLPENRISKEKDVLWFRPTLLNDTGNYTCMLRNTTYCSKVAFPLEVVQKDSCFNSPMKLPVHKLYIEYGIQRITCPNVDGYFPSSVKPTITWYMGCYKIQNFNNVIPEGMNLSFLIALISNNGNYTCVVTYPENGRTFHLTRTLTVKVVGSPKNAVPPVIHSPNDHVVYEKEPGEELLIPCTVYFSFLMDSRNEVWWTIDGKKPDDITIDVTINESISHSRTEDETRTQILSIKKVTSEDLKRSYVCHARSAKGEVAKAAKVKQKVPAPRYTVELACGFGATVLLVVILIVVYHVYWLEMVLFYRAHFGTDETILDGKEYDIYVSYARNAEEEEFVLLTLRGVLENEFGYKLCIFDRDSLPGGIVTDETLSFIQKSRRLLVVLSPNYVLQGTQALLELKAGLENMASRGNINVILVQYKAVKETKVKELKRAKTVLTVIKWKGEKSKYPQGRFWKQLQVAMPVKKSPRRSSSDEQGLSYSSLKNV

recombinant IL-1RAP biotinylated protein, sequence (Q9NPH3 21-359 limits assumed): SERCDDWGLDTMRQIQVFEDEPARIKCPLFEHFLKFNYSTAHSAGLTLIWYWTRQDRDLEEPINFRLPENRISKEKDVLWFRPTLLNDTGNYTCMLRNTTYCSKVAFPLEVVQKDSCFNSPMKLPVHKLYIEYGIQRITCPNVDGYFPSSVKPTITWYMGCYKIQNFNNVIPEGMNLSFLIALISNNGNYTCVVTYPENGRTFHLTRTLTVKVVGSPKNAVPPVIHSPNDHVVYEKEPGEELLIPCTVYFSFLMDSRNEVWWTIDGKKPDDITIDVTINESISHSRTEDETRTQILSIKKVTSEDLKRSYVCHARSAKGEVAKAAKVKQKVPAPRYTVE

B1: IL-1RAP CAR (scFv of #E3C3 with CD28-4.1BB-CD3z signaling chain) expressed at the surface of transduced CEM or primary T cells (protein, not shown: small tags and cut ends)
scFv: QVQLQQPGAELMMPGASVKVSCEASGYTFTDSWMHWVKQRPGQGLEWIGAIDPSDSYTTYNQKFTGKATLSVDESSNTAYMQLSSLTSEDSAVYYCARYYSGSNYISPFPYWGQGTLVTVSAGGSGGGGSGGGGSVDMESQIQVFVFVFLWLSGVDGDIVMTQSHKFMSTSVGDRVTITCKASLDVSTAVAWYQQKPGQSPKLLIYSASYRYTGVPDRFTGSGSGTDFTFTISSVQAEDLAVYYCQQHYSPPFTFGSGTNLEIK
For B1, the maximum percentage of Biotin+/CD19+ cells [1] was 85.8%, the maximum percentage of Biotin+/CD19+ cells [2] was 68.5% and the amount of recombinant protein required for recruiting maximum of cells [3] was 1.25 ng. The amount of recombinant protein required for recruiting maximum of cells [4] was 0.15 ng.

B2: mouse anti-hIL-1RAP monoclonal antibody, clone #E3C3 (antibody, V domains shown)
VH: QVQLQQPGAELMMPGASVKVSCEASGYTFTDSWMHWVKQRPGQGLEWIGAIDPSDSYTTYNQKFTGKATLSVDESSNTAYMQLSSLTSEDSAVYYCARYYSGSNYISPFPYWGQGTLVTVSA
VL: DIVMTQSHKFMSTSVGDRVTITCKASLDVSTAVAWYQQKPGQSPKLLIYSASYRYTGVPDRFTGSGSGTDFTFTISSVQAEDLAVYYCQQHYSPPFTFGSGTNLEIK
For B2, the RFI [5] was under 2.
